± gives the uncertainty stated by the source.

The nature of the data set: abundance fitness (aPCA) (normalised: wild type 0, dead -1); higher = more abundant; growth selection in yeast, the domain comes from the species named. Conditions: Homo sapiens.
As for “Scaffold attachment factor B1 S50H, Q15424”, the abundance fitness was -0.099 ± 0.072.

Consider “Scaffold attachment factor B1 S50I, Q15424”, for which the abundance fitness was -0.292 ± 0.096.

“Scaffold attachment factor B1 S50K, Q15424” gave an abundance fitness of -0.558 ± 0.11.

Substance “Scaffold attachment factor B1 S50L, Q15424” showed an abundance fitness of -0.234 ± 0.058.

Turning to “Scaffold attachment factor B1 S50M, Q15424”, the abundance fitness is -0.302 ± 0.097.

Take “Scaffold attachment factor B1 S50N, Q15424”: the abundance fitness was -0.316 ± 0.091.

Substance “Scaffold attachment factor B1 S50P, Q15424” showed an abundance fitness of -0.191 ± 0.058.

With “Scaffold attachment factor B1 S50Q, Q15424”, the abundance fitness is -0.166 ± 0.086.

Substance “Scaffold attachment factor B1 S50R, Q15424” yielded an abundance fitness of -0.365 ± 0.06.

Consider “Scaffold attachment factor B1 S50T, Q15424”, for which the abundance fitness is -0.312 ± 0.093.

“Scaffold attachment factor B1 S50V, Q15424” displayed an abundance fitness of -0.236 ± 0.068.

“Scaffold attachment factor B1 S50W, Q15424” registered an abundance fitness of -0.226 ± 0.068.

In turn, “Scaffold attachment factor B1 S50Y, Q15424” had an abundance fitness of -0.248 ± 0.074.

Substance “Scaffold attachment factor B1 S51A, Q15424” came in with an abundance fitness of -0.299 ± 0.071.

In the case of “Scaffold attachment factor B1 S51C, Q15424”, the abundance fitness is -0.217 ± 0.07.

Substance “Scaffold attachment factor B1 S51E, Q15424” yielded an abundance fitness of -0.247 ± 0.078.

“Scaffold attachment factor B1 S51F, Q15424” came in with an abundance fitness of -0.389 ± 0.085.

On to “Scaffold attachment factor B1 S51G, Q15424”, for which the abundance fitness is -0.111 ± 0.058.

Consider “Scaffold attachment factor B1 S51H, Q15424”, for which the abundance fitness is -0.26 ± 0.11.

In the case of “Scaffold attachment factor B1 S51I, Q15424”, the abundance fitness was -0.153 ± 0.089.

For the substance “Scaffold attachment factor B1 S51K, Q15424”, the abundance fitness was -0.327 ± 0.093.

“Scaffold attachment factor B1 S51L, Q15424” had an abundance fitness of -0.197 ± 0.061.

For the substance “Scaffold attachment factor B1 S51M, Q15424”, the abundance fitness is -0.284 ± 0.07.

The substance “Scaffold attachment factor B1 S51N, Q15424” displayed an abundance fitness of -0.167 ± 0.1.

“Scaffold attachment factor B1 S51P, Q15424” had an abundance fitness of -0.879 ± 0.11.

“Scaffold attachment factor B1 S51Q, Q15424” had an abundance fitness of -0.271 ± 0.079.

In turn, “Scaffold attachment factor B1 S51R, Q15424” displayed an abundance fitness of -0.141 ± 0.076.

As to “Scaffold attachment factor B1 S51T, Q15424”, the abundance fitness was -0.326 ± 0.081.

For the substance “Scaffold attachment factor B1 S51V, Q15424”, the abundance fitness was -0.118 ± 0.061.

On to “Scaffold attachment factor B1 S51W, Q15424”, for which the abundance fitness is -0.55 ± 0.088.

With “Scaffold attachment factor B1 S51Y, Q15424”, the abundance fitness was -0.472 ± 0.11.

“Scaffold attachment factor B1 S55A, Q15424” had an abundance fitness of -0.207 ± 0.076.

For the substance “Scaffold attachment factor B1 S55D, Q15424”, the abundance fitness is -0.187 ± 0.082.

As for “Scaffold attachment factor B1 S55E, Q15424”, the abundance fitness was -0.092 ± 0.069.

“Scaffold attachment factor B1 S55F, Q15424” gave an abundance fitness of -0.223 ± 0.054.

Consider “Scaffold attachment factor B1 S55G, Q15424”, for which the abundance fitness was -0.144 ± 0.066.

“Scaffold attachment factor B1 S55H, Q15424” gave an abundance fitness of -0.291 ± 0.091.

On to “Scaffold attachment factor B1 S55I, Q15424”, for which the abundance fitness is -0.261 ± 0.09.

In the case of “Scaffold attachment factor B1 S55K, Q15424”, the abundance fitness is -0.229 ± 0.093.

“Scaffold attachment factor B1 S55L, Q15424” yielded an abundance fitness of -0.147 ± 0.049.

With “Scaffold attachment factor B1 S55M, Q15424”, the abundance fitness was -0.12 ± 0.072.

“Scaffold attachment factor B1 S55N, Q15424” showed an abundance fitness of -0.13 ± 0.08.

Turning to “Scaffold attachment factor B1 S55P, Q15424”, the abundance fitness was -0.429 ± 0.1.

For the substance “Scaffold attachment factor B1 S55Q, Q15424”, the abundance fitness was -0.133 ± 0.059.

With “Scaffold attachment factor B1 S55R, Q15424”, the abundance fitness was -0.083 ± 0.06.

Take “Scaffold attachment factor B1 S55T, Q15424”: the abundance fitness was -0.199 ± 0.071.

On to “Scaffold attachment factor B1 S55V, Q15424”, for which the abundance fitness is -0.081 ± 0.055.

Consider “Scaffold attachment factor B1 S55W, Q15424”, for which the abundance fitness was -0.287 ± 0.056.

As to “Scaffold attachment factor B1 S55Y, Q15424”, the abundance fitness was -0.307 ± 0.08.

Regarding “Scaffold attachment factor B1 S79A, Q15424”, the abundance fitness is -0.127 ± 0.065.

Turning to “Scaffold attachment factor B1 S79C, Q15424”, the abundance fitness was -0.286 ± 0.077.

In the case of “Scaffold attachment factor B1 S79E, Q15424”, the abundance fitness is -0.288 ± 0.097.

“Scaffold attachment factor B1 S79F, Q15424” displayed an abundance fitness of -0.239 ± 0.08.

On to “Scaffold attachment factor B1 S79G, Q15424”, for which the abundance fitness is -0.119 ± 0.062.

As for “Scaffold attachment factor B1 S79H, Q15424”, the abundance fitness is -0.266 ± 0.086.

“Scaffold attachment factor B1 S79K, Q15424”: the abundance fitness is -0.229 ± 0.1.

“Scaffold attachment factor B1 S79L, Q15424”: the abundance fitness was -0.118 ± 0.068.

Substance “Scaffold attachment factor B1 S79M, Q15424” displayed an abundance fitness of -0.136 ± 0.063.

For “Scaffold attachment factor B1 S79N, Q15424”, the abundance fitness was -0.264 ± 0.091.

In the case of “Scaffold attachment factor B1 S79P, Q15424”, the abundance fitness is -0.108 ± 0.06.

For the substance “Scaffold attachment factor B1 S79Q, Q15424”, the abundance fitness was -0.443 ± 0.11.

Consider “Scaffold attachment factor B1 S79R, Q15424”, for which the abundance fitness was -0.25 ± 0.081.

The substance “Scaffold attachment factor B1 S79T, Q15424” showed an abundance fitness of -0.129 ± 0.062.

“Scaffold attachment factor B1 S79V, Q15424”: the abundance fitness was -0.131 ± 0.06.

For the substance “Scaffold attachment factor B1 S79W, Q15424”, the abundance fitness is -0.409 ± 0.087.

As to “Scaffold attachment factor B1 S79Y, Q15424”, the abundance fitness is -0.286 ± 0.078.

Turning to “Scaffold attachment factor B1 T26A, Q15424”, the abundance fitness was -0.282 ± 0.12.

The substance “Scaffold attachment factor B1 T26C, Q15424” returned an abundance fitness of -0.22 ± 0.079.

The substance “Scaffold attachment factor B1 T26D, Q15424” had an abundance fitness of -0.915 ± 0.36.

In the case of “Scaffold attachment factor B1 T26E, Q15424”, the abundance fitness is -0.242 ± 0.13.

Turning to “Scaffold attachment factor B1 T26G, Q15424”, the abundance fitness was -0.304 ± 0.071.

Turning to “Scaffold attachment factor B1 T26I, Q15424”, the abundance fitness was -0.314 ± 0.14.

With “Scaffold attachment factor B1 T26K, Q15424”, the abundance fitness is -0.31 ± 0.14.

Regarding “Scaffold attachment factor B1 T26L, Q15424”, the abundance fitness was -0.518 ± 0.15.

“Scaffold attachment factor B1 T26M, Q15424” came in with an abundance fitness of -0.213 ± 0.12.

In turn, “Scaffold attachment factor B1 T26N, Q15424” returned an abundance fitness of -0.936 ± 0.37.

“Scaffold attachment factor B1 T26P, Q15424” displayed an abundance fitness of -0.565 ± 0.16.

Take “Scaffold attachment factor B1 T26Q, Q15424”: the abundance fitness was -1.01 ± 0.34.

The substance “Scaffold attachment factor B1 T26S, Q15424” registered an abundance fitness of -0.452 ± 0.099.

“Scaffold attachment factor B1 T26V, Q15424” returned an abundance fitness of -0.417 ± 0.12.

“Scaffold attachment factor B1 T26W, Q15424” returned an abundance fitness of -0.355 ± 0.075.

Consider “Scaffold attachment factor B1 T28A, Q15424”, for which the abundance fitness is -0.519 ± 0.083.

Substance “Scaffold attachment factor B1 T28D, Q15424” returned an abundance fitness of -0.257 ± 0.1.

“Scaffold attachment factor B1 T28E, Q15424” came in with an abundance fitness of -0.261 ± 0.08.

In turn, “Scaffold attachment factor B1 T28F, Q15424” yielded an abundance fitness of -0.142 ± 0.084.

“Scaffold attachment factor B1 T28G, Q15424” registered an abundance fitness of -0.337 ± 0.055.

Turning to “Scaffold attachment factor B1 T28H, Q15424”, the abundance fitness is -0.434 ± 0.09.

As to “Scaffold attachment factor B1 T28I, Q15424”, the abundance fitness was -0.038 ± 0.065.

For “Scaffold attachment factor B1 T28L, Q15424”, the abundance fitness was -0.261 ± 0.07.

In turn, “Scaffold attachment factor B1 T28M, Q15424” had an abundance fitness of -0.234 ± 0.083.

Turning to “Scaffold attachment factor B1 T28N, Q15424”, the abundance fitness was -0.196 ± 0.099.

Take “Scaffold attachment factor B1 T28P, Q15424”: the abundance fitness is -0.348 ± 0.07.

“Scaffold attachment factor B1 T28Q, Q15424” gave an abundance fitness of -0.485 ± 0.073.

In turn, “Scaffold attachment factor B1 T28R, Q15424” had an abundance fitness of -0.301 ± 0.055.

Substance “Scaffold attachment factor B1 T28S, Q15424” had an abundance fitness of -0.183 ± 0.055.

Turning to “Scaffold attachment factor B1 T28V, Q15424”, the abundance fitness was -0.229 ± 0.056.
